Data published in publication PMC7820951.

Substrate: CC(C)O
Experiment: purified protein
Conditions: alcohol oxidation; cofactor F420

B1: ADF (F420-dependent alcohol dehydrogenase) (Methanoculleus thermophilus) (protein)
chain: MKTQIGYFASLEQYRPMDALEQAIRAEKVGFDSVWVDDHFHPWYHDNAQSAQAWAWMGAALQATKKVFISTCITCPIMRYNPAIVAQTFATLRQMYPGRVGVAVGAGEAMNEVPVTGEWPSVPVRQDMTVEAVKVMRMLWESDKPVTFKGDYFTLDKAFLYTKPDDEVPLYFSGMGPKGAKLAGMYGDHLMTVAAAPSTLKNVTIPKFEEGAREAGKDPSKMEHAMLIWYSVDPDYDKAVEALRFWAGCLVPSMFKYKVYDPKEVQLHANLVHCDTIKENYMCATDAEEMIKEIERFKEAGINHFCLGNSSPDVNFGIDIFKEVIPAVRD
  Km: 1300 µM
  kcat: 1.7 s⁻¹
